# Tested on: Escherichia coli TOP10
# Test: shrunken log2 fold change of peptide-encoding DNA abundance (4.5 h post-induction vs induction); higher = less antimicrobial activity (less host growth inhibition)
# Settings: time post-induction: 4.5 h; library: site-saturation at positions 5, 18, 19, 20
# 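Further: peptides expressed intracellularly from a pBAD plasmid library in pooled LB shake-flask culture, induced with 0.3% L-arabinose, DNA abundance read by NGS, three biological replicates, DESeq2 with apeglm shrinkage.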
row,Sequence,shrunken log2 fold change
1,RRIRCRPPRLPRPRPRPPQPPRP,0.858
2,RRIRQRPPRLPRPRPRPKDMPRP,0.0374
3,RRIRMRPPRLPRPRPRPYCCPRP,-0.348
4,RRIRQRPPRLPRPRPRPNWLPRP,0.259
5,RRIRRRPPRLPRPRPRPYPTPRP,-0.0423
6,RRIRGRPPRLPRPRPRPRDLPRP,0.473
7,RRIRQRPPRLPRPRPRPYNKPRP,-0.403
8,RRIRDRPPRLPRPRPRPITSPRP,-0.00293
9,RRIRTRPPRLPRPRPRPLVNPRP,-0.559
10,RRIRMRPPRLPRPRPRPIKDPRP,-0.165
11,RRIRTRPPRLPRPRPRPKKTPRP,0.0546
12,RRIRFRPPRLPRPRPRPFRRPRP,-0.0629
13,RRIRMRPPRLPRPRPRPAKVPRP,0.303
14,RRIRYRPPRLPRPRPRPHYWPRP,-0.582
15,RRIRGRPPRLPRPRPRPNWKPRP,0.332
16,RRIRQRPPRLPRPRPRPHTGPRP,-0.18
17,RRIRCRPPRLPRPRPRPKCEPRP,0.11
18,RRIRNRPPRLPRPRPRPGSNPRP,-0.0081
19,RRIRKRPPRLPRPRPRPECPPRP,0.306
20,RRIRPRPPRLPRPRPRPYLVPRP,-0.203
21,RRIRQRPPRLPRPRPRPFIEPRP,-0.0062
22,RRIRDRPPRLPRPRPRPKTYPRP,-0.227

row,Sequence,shrunken log2 fold change
1,RRIRTRPPRLPRPRPRPQGEPRP,-0.0823
2,RRIRQRPPRLPRPRPRPKMLPRP,0.0996
3,RRIRHRPPRLPRPRPRPVAHPRP,-0.00816
4,RRIRVRPPRLPRPRPRPECLPRP,0.0466
5,RRIRVRPPRLPRPRPRPKTYPRP,0.325
6,RRIRSRPPRLPRPRPRPGLPPRP,0.225
7,RRIRERPPRLPRPRPRPEASPRP,-0.0341
8,RRIRSRPPRLPRPRPRPSFDPRP,-0.264
9,RRIRMRPPRLPRPRPRPGVFPRP,0.858
10,RRIRGRPPRLPRPRPRPNWAPRP,0.363
11,RRIRLRPPRLPRPRPRPSPGPRP,0.0266
12,RRIRPRPPRLPRPRPRPLYRPRP,-0.181
13,RRIRARPPRLPRPRPRPQAKPRP,0.0548
14,RRIRPRPPRLPRPRPRPMLSPRP,0.0181
15,RRIRQRPPRLPRPRPRPSTGPRP,-0.0811
16,RRIRIRPPRLPRPRPRPHWGPRP,-0.175
17,RRIRGRPPRLPRPRPRPCVMPRP,0.516
18,RRIRPRPPRLPRPRPRPKHPPRP,0.995
19,RRIRFRPPRLPRPRPRPESWPRP,0.53
20,RRIRARPPRLPRPRPRPCWSPRP,-0.142
21,RRIRQRPPRLPRPRPRPQLAPRP,0.0428
22,RRIRWRPPRLPRPRPRPYSNPRP,-0.2

row,Sequence,shrunken log2 fold change
1,RRIRARPPRLPRPRPRPMCPPRP,0.0408
2,RRIRWRPPRLPRPRPRPGSSPRP,-0.0655
3,RRIRTRPPRLPRPRPRPHIDPRP,-0.0151
4,RRIRLRPPRLPRPRPRPHNKPRP,-0.59
5,RRIRRRPPRLPRPRPRPIVKPRP,-0.0348
6,RRIRQRPPRLPRPRPRPLQRPRP,-0.0166
7,RRIRHRPPRLPRPRPRPAYEPRP,0.0981
8,RRIRARPPRLPRPRPRPEQFPRP,0.218
9,RRIRHRPPRLPRPRPRPSWHPRP,-0.759
10,RRIRKRPPRLPRPRPRPLCYPRP,-0.213
11,RRIRHRPPRLPRPRPRPRLDPRP,-0.0149
12,RRIRTRPPRLPRPRPRPISKPRP,-0.17
13,RRIRARPPRLPRPRPRPFIAPRP,0.0626
14,RRIRGRPPRLPRPRPRPKIWPRP,0.64
15,RRIRSRPPRLPRPRPRPSWQPRP,-0.227
16,RRIRGRPPRLPRPRPRPEYIPRP,0.252
17,RRIRGRPPRLPRPRPRPKIFPRP,0.288
18,RRIRQRPPRLPRPRPRPEHDPRP,-0.0684
19,RRIRIRPPRLPRPRPRPRANPRP,0.0386
20,RRIRGRPPRLPRPRPRPKQFPRP,0.566
21,RRIRTRPPRLPRPRPRPCAVPRP,-0.262
22,RRIRDRPPRLPRPRPRPFAPPRP,0.318

row,Sequence,shrunken log2 fold change
1,RRIRRRPPRLPRPRPRPHCEPRP,-0.169
2,RRIRDRPPRLPRPRPRPVEGPRP,0.211
3,RRIRRRPPRLPRPRPRPGGWPRP,0.824
4,RRIRIRPPRLPRPRPRPLLKPRP,-0.428
5,RRIRNRPPRLPRPRPRPWSSPRP,-0.0666
6,RRIRHRPPRLPRPRPRPFKVPRP,-0.0904
7,RRIRDRPPRLPRPRPRPGHRPRP,-0.0741
8,RRIRRRPPRLPRPRPRPYNCPRP,0.00861
9,RRIRPRPPRLPRPRPRPIDSPRP,-0.018
10,RRIRWRPPRLPRPRPRPVVLPRP,-0.0385
11,RRIRWRPPRLPRPRPRPEIHPRP,-0.0167
12,RRIRVRPPRLPRPRPRPVNWPRP,0.27
13,RRIRGRPPRLPRPRPRPVYEPRP,0.271
14,RRIRRRPPRLPRPRPRPCVSPRP,0.0908
15,RRIRKRPPRLPRPRPRPNQQPRP,0.101
16,RRIRPRPPRLPRPRPRPTYFPRP,-0.179
17,RRIRHRPPRLPRPRPRPPQWPRP,0.0657
18,RRIRLRPPRLPRPRPRPLPLPRP,0.338
19,RRIRQRPPRLPRPRPRPIYSPRP,-0.1
20,RRIRWRPPRLPRPRPRPGPHPRP,-0.0302
21,RRIRFRPPRLPRPRPRPCQCPRP,-0.035
22,RRIRCRPPRLPRPRPRPHTHPRP,-0.676

row,Sequence,shrunken log2 fold change
1,RRIRERPPRLPRPRPRPTGMPRP,-0.128
2,RRIRERPPRLPRPRPRPLYAPRP,-0.101
3,RRIRPRPPRLPRPRPRPAHAPRP,0.236
4,RRIRQRPPRLPRPRPRPIVGPRP,0.0288
5,RRIRMRPPRLPRPRPRPHMEPRP,-0.0461
6,RRIRDRPPRLPRPRPRPMEDPRP,-0.0288
7,RRIRRRPPRLPRPRPRPHRQPRP,0.0248
8,RRIRCRPPRLPRPRPRPNQAPRP,-0.146
9,RRIRDRPPRLPRPRPRPAFRPRP,0.293
10,RRIRQRPPRLPRPRPRPWSTPRP,-0.0264
11,RRIRLRPPRLPRPRPRPWIPPRP,-0.0167
12,RRIRDRPPRLPRPRPRPINKPRP,-0.287
13,RRIRKRPPRLPRPRPRPDAIPRP,0.889
14,RRIRDRPPRLPRPRPRPVAMPRP,0.633
15,RRIRMRPPRLPRPRPRPAQPPRP,0.586
16,RRIRMRPPRLPRPRPRPNWLPRP,0.286
17,RRIRNRPPRLPRPRPRPRQSPRP,0.112
18,RRIRSRPPRLPRPRPRPTEFPRP,0.153
19,RRIRERPPRLPRPRPRPVVTPRP,-0.95
20,RRIRGRPPRLPRPRPRPKFKPRP,0.383
21,RRIRPRPPRLPRPRPRPTAQPRP,0.357

# From the supplement of paper PMC9112550, “Optimization of the antimicrobial peptide Bac7 by deep mutational scanning” (BMC Biology, 2022)
